Measurements taken from article PMC7474598.

Legend:
[1] = target: FLAG-SEPN1^D80A (human) (UniProt Q9NZV5); assay: sucrose gradient sedimentation; lysates of HeLa cells treated for 2 h with DMSO or Tg; 4% to 20% sucrose gradients, 19 fractions, FLAG immunoblot; markers BSA, IgG, catalase
[2] = target: FLAG-SEPN1^U428C (human) (UniProt Q9NZV5); assay: as above

Row | Substance | percent monomer (DMSO-treated cells) [1] [%] | percent monomer (Tg-treated cells) [1] [%] | percent oligomer (DMSO-treated cells) [1] [%] | percent oligomer (Tg-treated cells) [1] [%] | percent monomer (Tg-treated cells) [2] [%] | percent oligomer (DMSO-treated cells) [2] [%]
1 | FLAG-SEPN1^D80A (from UniProt Q9NZV5-2 44-556) (natural protein) | 79.7 | 78.4 | 21.5 | 21.5 | – | –
2 | FLAG-SEPN1^U428C (from UniProt Q9NZV5-2 44-556) (natural protein) | – | – | – | – | 61.8 | 96.2
